Test results from PMC5457915, “Real-time analysis of the binding of fluorescent VEGF165a to VEGFR2 in living cells: Effect of receptor tyrosine kinase inhibitors and fate of internalized agonist-receptor complexes” (Biochemical Pharmacology, 2017).

Molecular target: VEGFR2 (Homo sapiens, UniProt P35968)
Test: NFAT luciferase reporter gene assay in HEK293T ReLuc2P cells stably expressing wild-type VEGFR2
Type: cell-based
Parameters: in cells expressing the wild-type VEGFR2 receptor; host or cells: HEK293T ReLuc2P suspension cell line
Details: cells expressing the wild-type VEGFR2 receptor; n = 4
Description: NFAT luciferase reporter gene activity was monitored in a HEK293T ReLuc2P (Promega Corporation, USA) suspension cell line stably expressing VEGFR2 as described previously.
NFAT reporter genes: All data obtained from the NFAT luciferase reporter gene assays were normalised to 10 nM VEGF165a responses and fitted with non linear regression using the equation as described previously.

Chain of VEGFR2 (P35968 20-1356): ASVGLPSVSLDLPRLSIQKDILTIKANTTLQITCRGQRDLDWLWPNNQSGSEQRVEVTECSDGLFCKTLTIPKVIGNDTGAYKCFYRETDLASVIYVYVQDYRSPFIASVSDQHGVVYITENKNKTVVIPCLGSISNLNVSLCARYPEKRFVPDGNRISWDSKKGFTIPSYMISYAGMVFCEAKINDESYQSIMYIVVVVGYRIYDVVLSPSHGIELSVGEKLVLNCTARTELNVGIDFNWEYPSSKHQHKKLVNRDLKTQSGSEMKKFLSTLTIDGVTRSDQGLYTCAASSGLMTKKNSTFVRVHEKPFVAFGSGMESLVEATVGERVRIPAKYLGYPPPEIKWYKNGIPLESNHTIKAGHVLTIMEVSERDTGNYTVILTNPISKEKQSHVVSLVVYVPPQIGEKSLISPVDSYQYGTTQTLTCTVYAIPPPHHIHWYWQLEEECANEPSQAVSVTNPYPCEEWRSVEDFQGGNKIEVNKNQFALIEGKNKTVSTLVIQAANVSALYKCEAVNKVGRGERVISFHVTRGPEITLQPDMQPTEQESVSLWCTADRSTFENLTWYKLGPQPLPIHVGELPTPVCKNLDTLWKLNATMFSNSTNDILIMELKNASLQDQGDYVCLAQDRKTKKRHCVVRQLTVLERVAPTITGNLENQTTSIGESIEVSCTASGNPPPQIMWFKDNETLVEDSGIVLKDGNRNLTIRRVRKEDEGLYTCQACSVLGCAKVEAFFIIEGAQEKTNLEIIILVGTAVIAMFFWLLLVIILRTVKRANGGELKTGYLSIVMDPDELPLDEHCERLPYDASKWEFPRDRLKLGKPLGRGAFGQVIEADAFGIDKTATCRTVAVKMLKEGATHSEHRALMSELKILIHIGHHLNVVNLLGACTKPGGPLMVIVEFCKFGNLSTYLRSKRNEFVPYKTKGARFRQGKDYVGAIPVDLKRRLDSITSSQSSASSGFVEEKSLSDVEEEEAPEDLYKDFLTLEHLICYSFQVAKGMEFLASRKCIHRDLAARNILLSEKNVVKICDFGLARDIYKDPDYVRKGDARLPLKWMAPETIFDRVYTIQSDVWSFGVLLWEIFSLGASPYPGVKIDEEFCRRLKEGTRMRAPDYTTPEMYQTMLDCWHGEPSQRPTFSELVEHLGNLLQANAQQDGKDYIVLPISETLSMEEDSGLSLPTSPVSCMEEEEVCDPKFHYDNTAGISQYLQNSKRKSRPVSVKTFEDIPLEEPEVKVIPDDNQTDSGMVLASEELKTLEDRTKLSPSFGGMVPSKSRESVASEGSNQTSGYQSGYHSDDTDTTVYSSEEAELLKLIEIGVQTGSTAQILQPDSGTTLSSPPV

B1: non-fluorescent VEGF165a: unlabeled VEGF165a purified in an identical manner to VEGF165a-TMR, with modified N-terminus (protein)
chain: CDNAPMAEGGGQNHHEVVKFMDVYQRSYCHPIETLVDIFQEYPDEIEYIFKPSCVPLMRCGGCCNDEGLECVPTEESNITMQIMRIKPHQGQHIGEMSFLQHNKCECRPKKDRARQENPCGPCSERRKHLFVQDPQTCKCSCKNTDSRCKARQLELNERTCRCDKPRR
modifications: free N-terminal Cys (unlabeled); HEK293T-expressed, glycosylated; disulfide-linked antiparallel homodimer
pEC50, NFAT reporter gene agonist activity: 9.72 ± 0.09
